Laboratory results taken from article PMC7170535.

How the values were obtained:
[1] = target: recombinant inter-α-inhibitor heavy chain 1 (rHC1), wild type (human) (UniProt P19827); assay: SPR; 1,500 RU rHC1 proteins immobilised on a C1 chip by amide cross-linking; ligand as analyte; HEPES-buffered saline pH 7.5, 0.05% Tween 20, 10 mM EDTA; 50 μl/min; multicycle kinetics, 1:1 Langmuir
[2] = target: recombinant inter-α-inhibitor heavy chain 1 (rHC1), wild type (human) (UniProt P19827); assay: SPR; 1,500 RU rHC1 proteins immobilised on a C1 chip by amide cross-linking; ligand as analyte; HEPES-buffered saline pH 7.5, 0.05% Tween 20, 2 mM Mg2+, 2 mM Mn2+; 50 μl/min; multicycle kinetics, 1:1 Langmuir
[3] = target: recombinant inter-α-inhibitor heavy chain 1 (rHC1), D298A MIDAS mutant (human) (UniProt P19827); assay: as above
complement C3 (human) = assay: SPR; ~2,000 RU C3 immobilised on a CM5 chip by amide coupling; rHC1 or IαI as analyte; HEPES-buffered saline pH 7.5, 0.05% Tween 20, 2 mM Mg2+, 2 mM Mn2+; multicycle kinetics, 1:1 Langmuir

recombinant inter-α-inhibitor heavy chain 1 (rHC1), wild type (human), sequence (P19827 35-672): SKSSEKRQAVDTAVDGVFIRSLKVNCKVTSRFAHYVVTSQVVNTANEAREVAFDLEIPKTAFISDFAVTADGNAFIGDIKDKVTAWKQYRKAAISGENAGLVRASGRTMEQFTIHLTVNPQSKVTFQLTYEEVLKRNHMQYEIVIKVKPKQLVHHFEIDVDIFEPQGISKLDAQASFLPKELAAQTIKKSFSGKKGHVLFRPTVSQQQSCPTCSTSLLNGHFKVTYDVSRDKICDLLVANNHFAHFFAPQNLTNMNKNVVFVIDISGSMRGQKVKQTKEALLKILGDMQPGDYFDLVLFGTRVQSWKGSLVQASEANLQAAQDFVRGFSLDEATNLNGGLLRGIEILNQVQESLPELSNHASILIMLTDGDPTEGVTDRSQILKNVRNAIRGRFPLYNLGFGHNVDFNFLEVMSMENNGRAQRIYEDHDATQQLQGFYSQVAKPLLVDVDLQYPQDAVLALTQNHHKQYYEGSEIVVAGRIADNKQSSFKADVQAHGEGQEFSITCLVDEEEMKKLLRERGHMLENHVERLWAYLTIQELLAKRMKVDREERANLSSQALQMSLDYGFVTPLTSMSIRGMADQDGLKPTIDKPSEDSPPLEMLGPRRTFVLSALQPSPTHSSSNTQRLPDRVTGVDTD
LTBP1 N-terminal region (NT1), recombinant domain (domain or fragment), sequence (Q14766 24-1721): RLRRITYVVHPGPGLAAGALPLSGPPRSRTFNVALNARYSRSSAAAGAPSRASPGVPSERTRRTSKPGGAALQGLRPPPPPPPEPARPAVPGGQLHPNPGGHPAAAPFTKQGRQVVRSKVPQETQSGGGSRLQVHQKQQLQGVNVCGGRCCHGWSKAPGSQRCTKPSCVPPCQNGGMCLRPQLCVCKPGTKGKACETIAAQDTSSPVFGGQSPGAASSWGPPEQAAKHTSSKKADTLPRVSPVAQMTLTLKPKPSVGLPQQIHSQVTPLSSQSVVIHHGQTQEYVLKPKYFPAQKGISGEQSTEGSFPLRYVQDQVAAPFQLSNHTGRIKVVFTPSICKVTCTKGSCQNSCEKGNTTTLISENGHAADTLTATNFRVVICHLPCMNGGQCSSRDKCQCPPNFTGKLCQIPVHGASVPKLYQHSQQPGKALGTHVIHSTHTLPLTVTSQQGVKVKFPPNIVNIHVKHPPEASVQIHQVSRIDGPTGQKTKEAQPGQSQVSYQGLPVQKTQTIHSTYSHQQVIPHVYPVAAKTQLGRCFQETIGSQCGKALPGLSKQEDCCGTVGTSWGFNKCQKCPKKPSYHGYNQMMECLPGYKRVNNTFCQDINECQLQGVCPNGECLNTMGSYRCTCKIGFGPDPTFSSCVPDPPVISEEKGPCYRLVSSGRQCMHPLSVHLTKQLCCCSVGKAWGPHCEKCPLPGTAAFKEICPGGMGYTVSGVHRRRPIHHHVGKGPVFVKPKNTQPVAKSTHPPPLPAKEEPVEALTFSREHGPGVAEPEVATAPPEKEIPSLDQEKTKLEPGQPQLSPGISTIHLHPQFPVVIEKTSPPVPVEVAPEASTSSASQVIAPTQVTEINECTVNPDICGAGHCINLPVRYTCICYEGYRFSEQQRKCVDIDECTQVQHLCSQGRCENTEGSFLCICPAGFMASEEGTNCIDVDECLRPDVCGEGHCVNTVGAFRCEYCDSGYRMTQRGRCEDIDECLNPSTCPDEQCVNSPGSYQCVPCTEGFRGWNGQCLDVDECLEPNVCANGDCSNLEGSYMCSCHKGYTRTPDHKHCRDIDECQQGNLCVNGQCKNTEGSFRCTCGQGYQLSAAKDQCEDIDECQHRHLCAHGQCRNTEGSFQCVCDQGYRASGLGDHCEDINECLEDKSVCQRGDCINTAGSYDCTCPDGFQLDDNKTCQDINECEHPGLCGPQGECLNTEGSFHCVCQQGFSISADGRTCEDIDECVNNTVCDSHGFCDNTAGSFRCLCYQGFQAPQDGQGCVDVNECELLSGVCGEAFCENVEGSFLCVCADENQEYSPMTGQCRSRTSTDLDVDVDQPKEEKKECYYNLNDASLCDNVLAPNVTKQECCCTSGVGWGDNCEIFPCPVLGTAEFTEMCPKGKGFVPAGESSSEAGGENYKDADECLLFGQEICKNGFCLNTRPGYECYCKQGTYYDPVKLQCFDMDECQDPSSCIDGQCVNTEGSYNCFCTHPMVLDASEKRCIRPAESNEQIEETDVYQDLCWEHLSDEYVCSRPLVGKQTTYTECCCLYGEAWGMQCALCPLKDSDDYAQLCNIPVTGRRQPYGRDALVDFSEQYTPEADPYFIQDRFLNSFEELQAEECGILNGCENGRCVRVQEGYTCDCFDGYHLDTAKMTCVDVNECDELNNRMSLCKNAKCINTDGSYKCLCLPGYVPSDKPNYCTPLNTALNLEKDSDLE
recombinant inter-α-inhibitor heavy chain 1 (rHC1), D298A MIDAS mutant (human), sequence (P19827 35-672 D298A): as the sequence (P19827 35-672) above, with D264A counted along it

Substance	Kd [1]	Kd [2]	Kd [3]	Kd (complement C3 (human))
LTBP1 N-terminal region (NT1), recombinant domain (domain or fragment)	5.1 nM	4.6 nM	–	–
TGFβ1-LAP, small latent complex of TGFβ1 (from UniProt P01137 30-278)	–	16.1 nM	14.9 nM	–
inter-α-inhibitor (IαI) (from UniProt P19827 35-672; P19823 55-702) (complex)	–	–	–	659 nM
